Assay results reported in patent US20090149389A1.

Target: MAPKAP kinase II (MK2) (UniProt P49137)
Test: cell-based or functional assay

MAPKAP kinase II (MK2), sequence (P49137 whole entry): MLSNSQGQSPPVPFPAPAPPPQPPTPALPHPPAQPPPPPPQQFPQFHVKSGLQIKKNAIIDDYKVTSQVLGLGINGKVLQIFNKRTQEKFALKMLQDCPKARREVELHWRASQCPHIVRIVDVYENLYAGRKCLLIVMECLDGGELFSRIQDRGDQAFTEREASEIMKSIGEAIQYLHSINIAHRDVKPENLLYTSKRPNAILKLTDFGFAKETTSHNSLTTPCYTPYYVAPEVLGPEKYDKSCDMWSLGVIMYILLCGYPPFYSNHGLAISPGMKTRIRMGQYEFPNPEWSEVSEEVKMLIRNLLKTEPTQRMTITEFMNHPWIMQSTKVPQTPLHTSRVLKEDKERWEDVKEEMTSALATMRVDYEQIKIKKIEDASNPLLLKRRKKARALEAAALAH

KALNRdQLGVAA (peptide)
% of … [SEQ ID NO: 124] Reaction Velocity at an Inhibitor Concentration of 100 µM: 276%
